From the Human Domainome abundance scans (Beltran et al. 2025)
± gives the uncertainty stated by the source.

B1: Nanos homolog 2, residues 63 to 115; numbered along this chain, P60321 (parent)
chain: CNFCKHNGESRHVYSSHQLKTPDGVVVCPILRHYVCPVCGATGDQAHTLKYCP

Variants of: B1
Experiment: abundance fitness (aPCA) (normalised: wild type 0, dead -1); higher = more abundant; growth selection in yeast, the domain comes from the species named
Conditions: Homo sapiens

In order of falling abundance fitness:
1. G40D  0.343 ± 0.16
2. V38K  0.314 ± 0.089
3. V35H  0.293 ± 0.2
4. V38E  0.287 ± 0.1
5. G40K  0.183 ± 0.099
6. V38R  0.172 ± 0.06
7. V25F  0.166 ± 0.17
8. G40E  0.13 ± 0.15
9. V27H  0.096 ± 0.14
10. V38Q  0.091 ± 0.1
11. V25K  0.085 ± 0.083
12. V38F  0.084 ± 0.083
13. V38G  0.082 ± 0.066
14. V25N  0.08 ± 0.097
15. V38S  0.074 ± 0.084
16. V25L  0.074 ± 0.095
17. Y34H  0.073 ± 0.12
18. V27I  0.053 ± 0.13
19. G40H  0.051 ± 0.16
20. Y34R  0.046 ± 0.068
21. Y34L  0.042 ± 0.068
22. V27R  0.037 ± 0.094
23. Y34T  0.036 ± 0.1
24. V25I  0.03 ± 0.096
25. G40R  0.021 ± 0.066
26. V27T  0.02 ± 0.072
27. V25R  0.019 ± 0.086
28. V38T  0.016 ± 0.11
29. V25E  0.015 ± 0.067
30. Y34Q  0.013 ± 0.099
31. V25T  0.004 ± 0.071
32. V38A  0.001 ± 0.1
33. V25C  -0.001 ± 0.089
34. V38M  -0.003 ± 0.061
35. Y34F  -0.011 ± 0.091
36. G40F  -0.012 ± 0.23
37. V38N  -0.012 ± 0.13
38. V27C  -0.014 ± 0.091
39. G40C  -0.023 ± 0.073
40. Y34K  -0.03 ± 0.14
41. Y34V  -0.033 ± 0.073
42. V25S  -0.046 ± 0.092
43. V27F  -0.049 ± 0.12
44. V25Q  -0.05 ± 0.075
45. V25M  -0.051 ± 0.12
46. G40S  -0.052 ± 0.093
47. G40T  -0.063 ± 0.12
48. Y34C  -0.066 ± 0.06
49. Y34W  -0.066 ± 0.12
50. V27M  -0.069 ± 0.17
51. Y34A  -0.071 ± 0.07
52. V27A  -0.074 ± 0.087
53. V27L  -0.075 ± 0.11
54. V35E  -0.076 ± 0.078
55. V35K  -0.076 ± 0.1
56. G40A  -0.08 ± 0.12
57. V27G  -0.085 ± 0.082
58. V35Y  -0.086 ± 0.16
59. V27D  -0.09 ± 0.13
60. Y34M  -0.092 ± 0.11
61. V25Y  -0.092 ± 0.096
62. Y34S  -0.097 ± 0.08
63. V38C  -0.099 ± 0.18
64. V35R  -0.1 ± 0.081
65. G40M  -0.107 ± 0.098
66. Y34I  -0.107 ± 0.15
67. G43D  -0.125 ± 0.1
68. V27Y  -0.128 ± 0.13
69. V27K  -0.132 ± 0.15
70. G40N  -0.134 ± 0.21
71. Y34N  -0.134 ± 0.091
72. G43R  -0.135 ± 0.09
73. G43A  -0.138 ± 0.075
74. V27W  -0.144 ± 0.14
75. V27E  -0.148 ± 0.12
76. V25D  -0.148 ± 0.1
77. G24Q  -0.152 ± 0.064
78. V38I  -0.16 ± 0.13
79. G40Y  -0.168 ± 0.15
80. G40Q  -0.172 ± 0.23
81. G43Q  -0.176 ± 0.081
82. V38D  -0.184 ± 0.17
83. G43E  -0.187 ± 0.12
84. P29E  -0.195 ± 0.14
85. V35A  -0.209 ± 0.085
86. V38W  -0.222 ± 0.11
87. V38H  -0.222 ± 0.16
88. Y34G  -0.229 ± 0.051
89. V35L  -0.234 ± 0.097
90. V35C  -0.253 ± 0.089
91. V35N  -0.254 ± 0.16
92. V35G  -0.306 ± 0.071
93. G24S  -0.311 ± 0.092
94. Y34D  -0.32 ± 0.093
95. V35P  -0.341 ± 0.094
96. V27Q  -0.349 ± 0.28
97. G43N  -0.35 ± 0.23
98. P29K  -0.364 ± 0.074
99. P29Q  -0.38 ± 0.17
100. G40I  -0.394 ± 0.12
101. V35D  -0.398 ± 0.1
102. G24R  -0.413 ± 0.092
103. G43M  -0.414 ± 0.07
104. G43C  -0.421 ± 0.13
105. C28Q  -0.428 ± 0.2
106. C39Q  -0.428 ± 0.18
107. V27P  -0.434 ± 0.09
108. V35W  -0.445 ± 0.12
109. V25W  -0.459 ± 0.13
110. G43T  -0.467 ± 0.079
111. G24P  -0.478 ± 0.16
112. C39E  -0.484 ± 0.12
113. V25H  -0.489 ± 0.18
114. G43L  -0.494 ± 0.08
115. C39F  -0.497 ± 0.36
116. C28S  -0.501 ± 0.085
117. P29R  -0.503 ± 0.06
118. V35M  -0.51 ± 0.2
119. C28M  -0.524 ± 0.11
120. C28G  -0.535 ± 0.058
121. P29D  -0.543 ± 0.15
122. G24T  -0.563 ± 0.13
123. C39T  -0.58 ± 0.08
124. C28T  -0.586 ± 0.16
125. P29G  -0.588 ± 0.089
126. G40P  -0.595 ± 0.079
127. C39H  -0.597 ± 0.22
128. Y34P  -0.6 ± 0.14
129. C39L  -0.607 ± 0.094
130. C39K  -0.608 ± 0.11
131. C28D  -0.643 ± 0.21
132. P29S  -0.65 ± 0.12
133. C28P  -0.664 ± 0.18
134. V35F  -0.676 ± 0.2
135. G43V  -0.679 ± 0.092
136. C39R  -0.696 ± 0.11
137. G43H  -0.701 ± 0.3
138. C39V  -0.702 ± 0.21
139. G43Y  -0.703 ± 0.11
140. C39W  -0.708 ± 0.11
141. C28A  -0.714 ± 0.12
142. C39M  -0.717 ± 0.2
143. G43P  -0.718 ± 0.079
144. P29Y  -0.721 ± 0.29
145. C39G  -0.731 ± 0.13
146. C28E  -0.733 ± 0.13
147. C39I  -0.739 ± 0.39
148. G43I  -0.744 ± 0.17
149. C28R  -0.752 ± 0.09
150. P29N  -0.779 ± 0.4
151. C39Y  -0.781 ± 0.073
152. P29A  -0.786 ± 0.25
153. C28Y  -0.815 ± 0.28
154. C39D  -0.837 ± 0.32
155. C39P  -0.85 ± 0.24
156. C28V  -0.852 ± 0.17
157. G24V  -0.882 ± 0.081
158. G24Y  -0.895 ± 0.25
159. C28F  -0.91 ± 0.18
160. C28L  -0.962 ± 0.078
161. P29L  -0.978 ± 0.15
162. C39A  -0.986 ± 0.46
163. C28W  -1.03 ± 0.26
164. P29M  -1.05 ± 0.16
165. P29C  -1.07 ± 0.12
166. P29W  -1.07 ± 0.35
167. G24W  -1.12 ± 0.27
